Target: IgE-Fc(E289C)_BirA, terbium chelate labelled, biotinylated, mixed with Alexa488 labelled streptavidin (human), P01854
Test: cell-based or functional assay

Chain of IgE-Fc(E289C)_BirA, terbium chelate labelled, biotinylated, mixed with Alexa488 labelled streptavidin (human), P01854 (P01854 other isoform, or with tags, fused parts or gaps, stated change not applied): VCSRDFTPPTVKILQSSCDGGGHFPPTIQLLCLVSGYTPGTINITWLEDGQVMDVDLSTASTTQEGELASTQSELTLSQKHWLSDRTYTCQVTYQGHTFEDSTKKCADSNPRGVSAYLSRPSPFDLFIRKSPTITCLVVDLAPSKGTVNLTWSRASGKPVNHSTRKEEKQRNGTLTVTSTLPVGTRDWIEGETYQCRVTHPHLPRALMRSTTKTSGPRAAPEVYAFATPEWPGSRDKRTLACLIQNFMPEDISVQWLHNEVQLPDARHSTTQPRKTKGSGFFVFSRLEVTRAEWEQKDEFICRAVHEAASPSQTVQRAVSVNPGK

normalised FRET, mean, at [Fab] 0.152 nM: 1 | normalised FRET, mean, at [Fab] 0.45 nM: 0.2 | normalised FRET, mean, at [Fab] 1.37 nM: 1.55 | normalised FRET, mean, at [Fab] 4.4 nM: 0.1 | normalised FRET, mean, at [Fab] 12.3 nM: 2 | normalised FRET, mean, at [Fab] 37.03 nM: 9.68 | normalised FRET, mean, at [Fab] 111 nM: 28.8 | normalised FRET, mean, at [Fab] 333 nM: 39.3 | normalised FRET, mean, at [Fab] 1000 nM: 43.4 | normalised FRET, mean, at [Fab] 3000 nM: 41
B1: Fab7 (anti-human IgE Fab, human IgG1 Fab format) (Fab)
heavy: QVQLQQSGPGLVKPSQTLSLTCGISGDSVSSNSAAWNWLRQSPSRGLEWLGRTYYRSKWYNDYAVSMKSRITINPDTSRNQFSLQLNSVTPEDTAVYYCARDGEISYDYYYYGMDVWGRGTLVTVSSASTKGPSVFPLAPSSKSTSGGTAALGCLVKDYFPEPVTVSWNSGALTSGVHTFPAVLQSSGLYSLSSVVTVPSSSLGTQTYICNVNHKPSNTKVDKKVEPKSC
light: not shown
modifications: here or on the partner: thiol reactive terbium chelate on the Cys of E289C; biotin on the C-terminal BirA recognition motif (carrying Alexa488 labelled streptavidin)

Reference: patent US20150219635A1
